The record followed here is IntAct's records for PubMed 18432193.

First the molecules themselves.
B1: Protein draper (Drosophila melanogaster (Fruit fly)), Q9W0A0 (parent)
chain: MLPVILIACLAQLVLAQADLKDLDGPNICKRRELYNVDVVYTELQSFQERGSTWCVTFPPRCSTYRIKHRVVNKTKTIAKNRIVRDCCDGYIASAGECVPHCSEPCQHGRCISPEKCKCDHGYGGPACDINCPPGWYGRNCSMQCDCLNNAVCEPFSGDCECAKGYTGARCADICPEGFFGANCSEKCRCENGGKCHHVSGECQCAPGFTGPLCDMRCPDGKHGAQCQQDCPCQNDGKCQPETGACMCNPGWTGDVCANKCPVGSYGPGCQESCECYKGAPCHHITGQCECPPGYRGERCFDECQLNTYGFNCSMTCDCANDAMCDRANGTCICNPGWTGAKCAERICEANKYGLDCNRTCECDMEHTDLCHPETGNCQCSIGWSSAQCTRPCTFLRYGPNCELTCNCKNGAKCSPVNGTCLCAPGWRGPTCEESCEPGTFGQDCALRCDCQNGAKCEPETGQCLCTAGWKNIKCDRPCDLNHFGQDCAKVCDCHNNAACNPQNGSCTCAAGWTGERCERKCDTGKFGHDCAQKCQCDFNNSLACDATNGRCVCKQDWGGVHCETNCRSGYYGENCDKVCRCLNNSSCDPDSGNCICSAGWTGADCAEPCPPGFYGMECKERCPEILHGNKSCDHITGEILCRTGYIGLTCEHPCPAGLYGPGCKLKCNCEHGGECNHVTGQCQCLPGWTGSNCNESCPTDTYGQGCAQRCRCVHHKVCRKADGMCICETGWSGTRCDEVCPEGFYGEHCMNTCACPSANFQCHAAHGCVCRSGYTGDNCDELIASQRIADQSENSSRASVALTLVLMTLFACIIFAVFIYYRRRVSNLKTEIAHVHYTHDTNPPSWPPNHNFDNPVYGMQAETRLLPNNMRSKMNNFDQRSTMSTDYGDDCNASGRVGSYSINYNHDLLTKNLNADRTNPIVYNESLKEEHVYDEIKHKEGYKDPDEYDHLDYSRPSTSQKPHYHRMNDAMLNINQDEEKPSNVKNMTVLLNKPLPPTEPEPQHECFDNTNTNLDNVSTASPSSSPKFLK
partner: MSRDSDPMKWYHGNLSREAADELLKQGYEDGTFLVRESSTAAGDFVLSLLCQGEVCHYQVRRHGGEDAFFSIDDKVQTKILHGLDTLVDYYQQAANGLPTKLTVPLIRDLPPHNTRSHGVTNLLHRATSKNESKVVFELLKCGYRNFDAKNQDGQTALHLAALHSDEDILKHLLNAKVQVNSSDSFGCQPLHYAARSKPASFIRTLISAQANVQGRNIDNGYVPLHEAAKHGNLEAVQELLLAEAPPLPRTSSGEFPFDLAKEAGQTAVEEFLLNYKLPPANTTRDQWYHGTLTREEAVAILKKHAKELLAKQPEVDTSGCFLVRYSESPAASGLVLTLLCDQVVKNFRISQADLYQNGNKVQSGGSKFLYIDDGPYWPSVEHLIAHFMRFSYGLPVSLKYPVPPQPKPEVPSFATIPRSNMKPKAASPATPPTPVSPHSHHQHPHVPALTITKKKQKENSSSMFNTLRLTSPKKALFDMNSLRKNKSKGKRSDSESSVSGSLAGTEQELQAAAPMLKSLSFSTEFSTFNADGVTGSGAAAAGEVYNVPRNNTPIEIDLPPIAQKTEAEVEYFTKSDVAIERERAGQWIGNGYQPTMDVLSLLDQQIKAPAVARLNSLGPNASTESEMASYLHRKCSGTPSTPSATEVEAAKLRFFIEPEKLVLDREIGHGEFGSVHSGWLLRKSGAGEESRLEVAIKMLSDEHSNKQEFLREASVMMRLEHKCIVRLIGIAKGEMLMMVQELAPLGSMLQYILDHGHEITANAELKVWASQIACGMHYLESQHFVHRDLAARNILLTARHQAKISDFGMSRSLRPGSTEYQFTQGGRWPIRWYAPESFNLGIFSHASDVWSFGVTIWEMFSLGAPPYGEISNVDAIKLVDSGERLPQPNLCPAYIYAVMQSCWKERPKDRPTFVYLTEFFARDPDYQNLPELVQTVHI

In the first test the parent is B1. The following applies: with shark_drome Shark.
As for Y934F, the “effect of a mutation on the interaction” value is reported as “decreasing interaction”.

Y949F: the “effect of a mutation on the interaction” value is on record as “disrupting interaction”.

Variants of B1 are the subject of a further test. The following applies: with shark_drome Shark. The source holds these as a separate data set.
Regarding Y949F, the “effect of a mutation on the interaction” value is “decreasing interaction”.
